Results reported in paper PMC2757048.
Where two headings read alike, the source gives them in different places.

Columns and labels:
[1] = target: paclitaxel-stabilized microtubules (UniProt P02550); experiment: co-sedimentation
[2] = target: paclitaxel-stabilized microtubules (UniProt P02550); experiment: co-sedimentation; remark: listed apart in the source
[3] = target: paclitaxel-stabilized microtubules (UniProt P02550)
[4] = target: paclitaxel-stabilized microtubules (UniProt P02550); experiment: co-sedimentation; remark: listed apart in the source

UniProt P02550, sequence (P02550 whole entry, chain 1 of 2): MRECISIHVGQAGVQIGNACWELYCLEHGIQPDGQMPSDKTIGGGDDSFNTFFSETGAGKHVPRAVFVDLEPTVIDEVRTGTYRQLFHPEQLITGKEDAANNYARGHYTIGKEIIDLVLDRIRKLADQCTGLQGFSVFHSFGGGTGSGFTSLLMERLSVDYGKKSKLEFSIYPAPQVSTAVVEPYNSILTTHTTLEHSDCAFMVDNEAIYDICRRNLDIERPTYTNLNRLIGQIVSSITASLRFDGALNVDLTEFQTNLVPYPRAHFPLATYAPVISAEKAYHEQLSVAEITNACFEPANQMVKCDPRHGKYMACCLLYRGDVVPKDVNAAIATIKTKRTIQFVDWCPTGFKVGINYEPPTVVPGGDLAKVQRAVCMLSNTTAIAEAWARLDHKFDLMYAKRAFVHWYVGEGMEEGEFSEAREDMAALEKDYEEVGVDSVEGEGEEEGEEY
UniProt P02550, sequence (P02554 whole entry, chain 2 of 2, further chain): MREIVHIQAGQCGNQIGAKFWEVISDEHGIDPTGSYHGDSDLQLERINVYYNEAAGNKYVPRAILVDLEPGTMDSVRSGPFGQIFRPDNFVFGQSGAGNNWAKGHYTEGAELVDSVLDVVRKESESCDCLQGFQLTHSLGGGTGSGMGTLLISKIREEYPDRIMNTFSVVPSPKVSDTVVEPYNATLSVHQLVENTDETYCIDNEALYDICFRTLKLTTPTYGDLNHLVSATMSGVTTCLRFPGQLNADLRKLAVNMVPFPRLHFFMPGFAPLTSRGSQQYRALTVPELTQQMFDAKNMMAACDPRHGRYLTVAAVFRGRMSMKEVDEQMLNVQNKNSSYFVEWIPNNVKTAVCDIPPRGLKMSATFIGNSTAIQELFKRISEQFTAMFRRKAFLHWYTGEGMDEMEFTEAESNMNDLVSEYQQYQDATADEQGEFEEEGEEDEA

Substance	Kd [1] [µM]	Kd [2] [µM]	Km(MT) of MT-activated steady-state ATPase, untreated dynein, 1 mM ATP, 25 °C [3] [µM]	Kd [4] [µM]
HFG380 L3339C Q3510C double-Cys mutant, oxidized (stalk coiled coil locked in the +β registry), P34036 1388-4730	> 10	> 10	–	–
HFG380 L3339C I3517C double-Cys mutant, oxidized (stalk coiled coil locked in the −β registry), P34036 1388-4730	> 10	> 10	–	–
HFG380 L3339C I3517C double-Cys mutant, untreated, P34036 1388-4730	–	> 10	26.6	–
HFG380 L3339C Q3510C double-Cys mutant, untreated, P34036 1388-4730	–	> 10	40.5	0.61
HFG380 Q3340C I3513C double-Cys mutant, untreated, P34036 1388-4730	–	> 10	14.5	0.65
